The results in this text go back to patent US20230348629A1.

For this assay, the target named is human TIGIT on HEK293A/human TIGIT cells (human) (UniProt Q495A1). As to the kind of experiment: cell-based or functional assay.
human TIGIT on HEK293A/human TIGIT cells (human), sequence (Q495A1 22-244 limits assumed): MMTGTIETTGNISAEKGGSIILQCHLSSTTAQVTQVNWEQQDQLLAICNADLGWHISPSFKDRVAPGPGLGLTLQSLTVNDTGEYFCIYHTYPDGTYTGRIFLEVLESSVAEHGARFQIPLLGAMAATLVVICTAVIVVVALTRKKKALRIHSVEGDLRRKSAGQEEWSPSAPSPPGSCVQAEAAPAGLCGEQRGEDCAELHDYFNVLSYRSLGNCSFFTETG

In turn, Tiragolumab (antibody) came in with an EC50, NK92 (NK92MI-CD16a) cell-mediated ADCC, LDH release of 0.511 nM and an EC50, PBMC-mediated ADCC, death rate of GFP+ cells by FACS of 0.311 nM.
